Assay results: publication PMC8888459 (2022)

How the values were obtained:
[1] = molecular target: T1, Yah1-GST fusion protein (S. cerevisiae, UniProt Q12184 17-172); assay: BLI; kd1 of 2:1 fit
T1 chain: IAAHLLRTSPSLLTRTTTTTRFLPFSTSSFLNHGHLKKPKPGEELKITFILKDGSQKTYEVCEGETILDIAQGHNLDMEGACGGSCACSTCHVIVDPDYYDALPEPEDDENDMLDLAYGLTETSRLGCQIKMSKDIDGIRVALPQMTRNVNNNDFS

[2] = molecular target: T1, Yah1-GST fusion protein; assay: BLI; kd2 of 2:1 fit, second site
[3] = molecular target: T1, Yah1-GST fusion protein; assay: BLI; anaerobic, reduced Yah1; kd1 of 2:1 fit
[4] = molecular target: T1, Yah1-GST fusion protein; assay: BLI; KD1 of 2:1 heterogeneous ligand fit (46%)
[5] = molecular target: T1, Yah1-GST fusion protein; assay: BLI; anaerobic, reduced Yah1; KD1 of 2:1 fit (61%)
[6] = molecular target: T1, Yah1-GST fusion protein; assay: BLI; anaerobic, reduced Yah1 (Fig. 6C); kd1 of 2:1 fit
[7] = molecular target: T1, Yah1-GST fusion protein; assay: BLI; anaerobic, reduced Yah1; kd2 of 2:1 fit, second site
[8] = molecular target: T1, Yah1-GST fusion protein; assay: BLI; KD2 of 2:1 heterogeneous ligand fit (54%), second site
[9] = molecular target: T1, Yah1-GST fusion protein; assay: BLI; anaerobic, reduced Yah1 (Fig. 6C); KD1 of 2:1 fit (40%)
[10] = molecular target: T1, Yah1-GST fusion protein; assay: BLI; anaerobic, reduced Yah1; KD2 of 2:1 fit (39%), second site
[11] = molecular target: T1, Yah1-GST fusion protein; assay: BLI; anaerobic, reduced Yah1 (Fig. 6C); kd2 of 2:1 fit, second site
[12] = molecular target: T1, Yah1-GST fusion protein; assay: BLI; anaerobic, reduced Yah1 (Fig. 6C); KD2 of 2:1 fit (60%), second site

B1: NIA complex (Nfs1–Isd11–ACPEc) (complex)
chain 1: PAAGVKLDDNFSLETHTDIQAAAKAQASARASASGTTPDAVVASGSTAMSHAYQENTGFGTRPIYLDMQATTPTDPRVLDTMLKFYTGLYGNPHSNTHSYGWETNTAVENARAHVAKMINADPKEIIFTSGATESNNMVLKGVPRFYKKTKKHIITTRTEHKCVLEAARAMMKEGFEVTFLNVDDQGLIDLKELEDAIRPDTCLVSVMAVNNEIGVIQPIKEIGAICRKNKIYFHTDAAQAYGKIHIDVNEMNIDLLSISSHKIYGPKGIGAIYVRRRPRVRLEPLLSGGGQERGLRSGTLAPPLVAGFGEAARLMKKEFDNDQAHIKRLSDKLVKGLLSAEHTTLNGSPDHRYPGCVNVSFAYVEGESLLMALRDIALSSGSACTSASLEPSYVLHALGKDDALAHSSIRFGIGRFSTEEEVDYVVKAVSDRVKFLRELSPLWEMVQEGIDLNSIKWSGH
chain 2: MPGFTAPTRRQVLSLYKEFIKNANQFNNYNFREYFLSKTRTTFRKNMNQQDPKVLMNLFKEAKNDLGVLKRQSVISQMYTFDRLVVEPLQGRKH
chain 3: MSTIEERVKKIIGEQLGVKQEEVTNNASFVEDLGADSLDTVELVMALEEEFDTEIPDEEAEKITTVQAAIDYINGHQA
[1]
  koff: 3.54e-07 s⁻¹
[2]
  koff: 0.0267 s⁻¹
[3]
  koff: 3.88e-07 s⁻¹
[4]
  Kd: 0.0966 nM
[5]
  Kd: 0.82 nM
[6]
  koff: 4.91e-07 s⁻¹
[7]
  koff: 0.00204 s⁻¹
[8]
  Kd: 280 nM
[9]
  Kd: 0.446 nM
[10]
  Kd: 114 nM
[11]
  koff: 0.00248 s⁻¹
[12]
  Kd: 65.8 nM
